The series deals with TR/CAR chimera (TR beta A/B and C domains fused to CAR D, E, F domains). Put plainly: cell_activity. The settings on record: no ligand, charcoal-stripped serum; JEG3 cells.

As for “AAAGGTAAGATCAGGGACGTGACCGCAG (double strand) [T3RE]”, the activity (% of TR beta response) is > 50.

The values are drawn from patent US5686574.
